Test results published in PMC3720919, “Mcm10 Self-Association Is Mediated by an N-Terminal Coiled-Coil Domain” (PLoS ONE, 2013).
“And” between values parts separate entries of the source, which are not always exact repeats. Equal values may be shown once.

Key:
[1] = molecular target: the molecule itself; assay: SEC-MALS; Superose6 10/300 GL, 0.4 ml/min, 25 mM Tris pH 7.5, 150 mM NaCl, 2% glycerol, 2 mM BME
[2] = molecular target: the molecule itself; assay: crystal structure; MBP-CC fusions at 50 mg/mL, sitting drop vapor diffusion, 16°C, sodium acetate pH 4.8; molecular replacement with MBPX(E)
[3] = molecular target: the molecule itself; assay: native gel or EMSA; native gel electrophoresis (4-16% Bis-Tris) of the NTD
[4] = molecular target: the molecule itself; assay: AUC; sedimentation velocity, 42,000 rpm, 20°C; 0.6 mg/ml in 25 mM sodium acetate pH 4.7, 150 mM NaCl, 0.3 mM TCEP
[5] = molecular target: the molecule itself; assay: AUC; sedimentation velocity, 42,000 rpm, 20°C; 0.6 mg/ml in PBS pH 7.4, 150 mM NaCl, 0.3 mM TCEP

B1: Full-length Xenopus laevis Mcm10 (natural protein, UniProt Q5EAW4 1-860, looked up)
chain: MEVDADLELLTSLLEENEAAERNGVVSHEASSELDEFDELFDGDEDGSYHGSDNGTEEQTIGGVEEDFTTLFGDIDDIKEEEAAASDTKKQSSSVCQEKSKDELEDELRKMQAQMKKLQEQLQKTALAKTSSPGNPKKSPENKMVQSGKTSRTSPLIERKKTDSNTVAPQLTSPTVPKAKLPDAPKRKQNLSDKSPVQKKMASFLSPPEKSSARPGQSTATQPITNTLKSPVGQQYHVEKFSGLRIRKPRVSSSEMERKMNGRKLIRLAQLQNKIATEKLEEEDWVTFGVIVKKITPQSSNNGKTFSIWRLNDLKDLDKYISLFLFGDVHKEHWKTDQGTVIGLLNANPMKPKEGTDEVCLSVDNPQKVLLMGDAVDLGTCKARKKNGDPCTQMVNLNDCEYCQYHVQAQYKKVSSKRADLQSSYSGHVPKKMARGANGLRERLCQGGFHYGGVSSMAYAATLGSTTAPKKTVQSTLSNMVVRGAEAIALEARQKIAAAKNVVQTDEFKELMTLPTPGALNLKKHLSGVSPQANCGKEGQPIQSISASTLLKQQKQQMLNARKKRAEESQKRFLESTEKSEKSSTLTSSACSVFQSPKQGAEFPNAQKMATPKLGRGFAEGDDVLFFDISPPPAPKLSTSAEAKKLLAIQKLQAKGQTLAKTDPNSIKRKRGSSSEELVAQRVASHASTSPKSPDENEPAIKKHRDQLAYLESEEFQKILNAKSKHTGILKEAEVEIQEHYFDPLVKKEQLEEKMQSIREQSCRVVTCKTCKYTHFKPKETCVSENHDFHWHNGVKRFFKCPCGNRTISLDRLPKKHCSTCGLFKWERVGMLKEKTGPKLGGETLLPRGEEHGKFLNSLK
notes: Minichromosome maintenance protein 10 (Mcm10), Xenopus laevis, full length (860 residues by the construct 230-860; calculated mass 95.4 kDa); also called xMcm10; full-length Mcm10; source: Hi-5 insect cells (baculovirus, Bac-to-Bac), purified (Ni-NTA, Source Q, Superose6 gel filtration)
stoichiometry N [1]: ~2 Mcm10 subunits and ~3.4 Mcm10 subunits

B2: MBP-CC 95-124 (xMcm10 residues 95-124 fused to maltose binding protein) (domain or fragment, Xenopus laevis, UniProt Q5EAW4 95-124, looked up)
chain: VCQEKSKDELEDELRKMQAQMKKLQEQLQK
notes: Mcm10, Xenopus laevis, coiled-coil region, residues 95-124 (95-122 in the final model); Trimer in the crystal; dimer in sedimentation velocity; MBPX(E) as in PDB 3H4Z; also called xMcm10-CC^95–124; wild-type CC; source: E. coli C41, purified (amylose resin, Superdex S200); not shown: MBP (mutant form MBPX(E) residues 1-367; uncleavable linker AAAMG), N-terminal, kept
stoichiometry N [2]: 3

B3: Mcm10-NTD (aa 1-145) L104A/L108A (2A mutant) (domain or fragment, Xenopus laevis, UniProt Q5EAW4 1-145, looked up)
chain: MEVDADLELLTSLLEENEAAERNGVVSHEASSELDEFDELFDGDEDGSYHGSDNGTEEQTIGGVEEDFTTLFGDIDDIKEEEAAASDTKKQSSSVCQEKSKDEAEDEARKMQAQMKKLQEQLQKTALAKTSSPGNPKKSPENKMV
notes: Mcm10, Xenopus laevis, residues 1-145 with L104A/L108A; also called NTD 2A
binding result [3]: binds

B4: MBP-CC 95-132 (xMcm10 residues 95-132 fused to maltose binding protein) (domain or fragment, Xenopus laevis, UniProt Q5EAW4 95-132, looked up)
chain: VCQEKSKDELEDELRKMQAQMKKLQEQLQKTALAKTSS
notes: Mcm10, Xenopus laevis, coiled-coil region, residues 95-132; MBPX(E) as in PDB 3H4Z (search model); the linker in the 95-124 model is AAAMG; Calculated mass 45.1 kDa; source: E. coli C41, purified (amylose resin, Superdex S200); not shown: MBP (mutant form MBPX(E) from pMALX(E); short uncleavable linker), N-terminal, kept
stoichiometry N [4]: 3 and 2 | stoichiometry N [5]: 1.7 MBP-CC subunits
